Holding throughout (test): cell-based or functional assay
In experiment [1] the target is HIV-1 JR-FL envelope glycoprotein (Env) (HIV-1 strain JR-FL).
The target of experiment [2] is HIV-1 AD8 envelope glycoprotein (Env) (HIV-1 strain AD8).
Experiment [3] has as its target HIV-1 IIIB envelope glycoprotein (Env) (HIV-1 strain IIIB).

With Fab X5, the Neutralizing activity (percentage) at 100 µg/mL in experiment [1] turned out to be 83%; in experiment [2], 97%; in experiment [3] it was 100%. For the same substance, the percentage of maximal infection, U87.CD4.CCR5.CXCR4 cells, 100 µg/mL antibody in experiment [1] was 27%; in experiment [2], 8.7%; in experiment [3], 10%.

As to IgG1 X5 (antibody), the Neutralizing activity (percentage) at 100 µg/mL in experiment [1] is 38%; in experiment [2] it was 51%; in experiment [3], 84%. Also, the percentage of maximal infection, U87.CD4.CCR5.CXCR4 cells, 100 µg/mL antibody was determined as 72% in experiment [1], 55% in experiment [2] and 28% in experiment [3].

These data come from patent US20070212363A1.
